According to patent US20170275357A1 (Bristol-Myers Squibb, published 2017):
Like-named read-outs stand apart in the source and are kept apart here. Blank lines part the entries; values can stand above or below the binder they belong to.

Tests used:
[1] = target: T1, wild-type IL-23 (His-tagged p19 / non-tagged p40) (human, UniProt P29460 23-328); assay: SPR (Biacore T100): hIL-23R-Fc captured on protein A, IL-23 (purified wild-type, and wild-type expression supernatant diluted 1:5) injected 3 min; response 10 s before the end of the injection, reference subtracted
T1 construct: co-expressed with p40 in HEK293-6E; also called WT; wt human IL-23
T1 sequence 1: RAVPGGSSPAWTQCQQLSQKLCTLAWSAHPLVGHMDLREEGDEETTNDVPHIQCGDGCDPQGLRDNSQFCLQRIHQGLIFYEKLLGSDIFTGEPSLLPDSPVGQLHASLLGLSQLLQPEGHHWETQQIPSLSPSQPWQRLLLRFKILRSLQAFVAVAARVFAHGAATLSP
T1 sequence 2: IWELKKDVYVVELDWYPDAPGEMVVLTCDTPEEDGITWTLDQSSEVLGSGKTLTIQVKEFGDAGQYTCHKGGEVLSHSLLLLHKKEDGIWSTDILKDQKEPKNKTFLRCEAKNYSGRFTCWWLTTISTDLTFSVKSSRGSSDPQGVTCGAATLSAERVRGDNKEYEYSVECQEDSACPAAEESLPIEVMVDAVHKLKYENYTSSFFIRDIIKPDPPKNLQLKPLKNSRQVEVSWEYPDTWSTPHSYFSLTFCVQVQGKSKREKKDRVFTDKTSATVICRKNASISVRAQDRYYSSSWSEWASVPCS

[2] = target: T2, human IL-17A/F heterodimer (human, UniProt Q16552 24-155; Q96PD4 31-163); assay: cell-based or functional assay
human IL-17A homodimer [3] = target: T3, human IL-17A homodimer (human, UniProt Q16552 24-155); assay: cell-based or functional assay
human IL-17F homodimer [4] = target: T4, human IL-17F homodimer (human, UniProt Q96PD4 31-163); assay: cell-based or functional assay
T4 sequence: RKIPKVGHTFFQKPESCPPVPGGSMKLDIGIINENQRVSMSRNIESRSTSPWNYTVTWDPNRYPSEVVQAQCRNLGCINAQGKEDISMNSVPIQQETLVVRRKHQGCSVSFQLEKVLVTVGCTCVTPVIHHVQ

[5] = target: T2, human IL-17A/F heterodimer; assay: SPR Biacore T100, captured antibody, bivalent analyte model
human IL-17F homodimer [6] = target: T4, human IL-17F homodimer; assay: as above
[7] = target: T2, human IL-17A/F heterodimer; assay: as above; remark: listed apart in the source
[8] = target: T2, human IL-17A/F heterodimer; assay: cell-based or functional assay; remark: listed apart in the source
human IL-17A homodimer [9] = target: T3, human IL-17A homodimer; assay: cell-based or functional assay; remark: listed apart in the source
human IL-17F homodimer [10] = target: T4, human IL-17F homodimer; assay: cell-based or functional assay; remark: listed apart in the source
[11] = target: T2, human IL-17A/F heterodimer; assay: cell-based or functional assay; remark: listed apart in the source
human IL-17A homodimer [12] = target: T3, human IL-17A homodimer; assay: cell-based or functional assay; remark: listed apart in the source
human IL-17F homodimer [13] = target: T4, human IL-17F homodimer; assay: cell-based or functional assay; remark: listed apart in the source
human IL-17A homodimer [14] = target: T3, human IL-17A homodimer; assay: SPR Biacore T100, captured antibody, bivalent analyte model
human IL-17A homodimer [15] = target: T3, human IL-17A homodimer; assay: as above; remark: listed apart in the source
[16] = target: T2, human IL-17A/F heterodimer; assay: cell-based or functional assay; remark: listed apart in the source
human IL-17A homodimer [17] = target: T3, human IL-17A homodimer; assay: cell-based or functional assay; remark: listed apart in the source
human IL-17F homodimer [18] = target: T4, human IL-17F homodimer; assay: cell-based or functional assay; remark: listed apart in the source
[19] = target: T2, human IL-17A/F heterodimer; assay: cell-based or functional assay; remark: listed apart in the source
human IL-17A homodimer [20] = target: T3, human IL-17A homodimer; assay: cell-based or functional assay; remark: listed apart in the source
human IL-17F homodimer [21] = target: T4, human IL-17F homodimer; assay: cell-based or functional assay; remark: listed apart in the source
human IL-17F homodimer [22] = target: T4, human IL-17F homodimer; assay: SPR Biacore T100, captured antibody, bivalent analyte model; remark: listed apart in the source
[23] = target: T2, human IL-17A/F heterodimer; assay: cell-based or functional assay; remark: listed apart in the source
human IL-17A homodimer [24] = target: T3, human IL-17A homodimer; assay: cell-based or functional assay; remark: listed apart in the source
human IL-17F homodimer [25] = target: T4, human IL-17F homodimer; assay: cell-based or functional assay; remark: listed apart in the source
human IL-17F homodimer [26] = target: T4, human IL-17F homodimer; assay: X-ray co-crystal structure

- binding result [1]: binds
B1: hIL-23R-Fc (Fc fusion, human, UniProt Q5VWK5 24-353, looked up)
chain: GITNINCSGHIWVEPATIFKMGMNISIYCQAAIKNCQPRKLHFYKNGIKERFQITRINKTTARLWYKNFLEPHASMYCTAECPKHFQETLICGKDISSGYPPDIPDEVTCVIYEYSGNMTCTWNAGKLTYIDTKYVVHVKSLETEEEQQYLTSSYINISTDSLQGGKKYLVWVQAANALGMEESKQLQIHLDDIVIPSAAVISRAETINATVPKTIIYWDSQTTIEKVSCEMRYKATTNQTWNVKEFDTNFTYVQQSEFYLEPNIKYVFQVRCQETGKRYWQPWSSLFFHKTPETVPQVTSKAFQHDTWNSGLTVASISTGHLTSDNRGD
notes: Bought from R&D Systems; also called human IL-23 receptor; p19 specific IL-23 receptor; not shown: Fc part of the commercial fusion (R&D Systems) not described

- IC50, NIH/3T3/KZ170 NF-kB luciferase reporter [2]: 0.9 nM
- IC50, NIH/3T3/KZ170 NF-kB luciferase reporter (human IL-17A homodimer [3]): 3 nM
- IC50, NIH/3T3/KZ170 NF-kB luciferase reporter (human IL-17F homodimer [4]): 0.4 nM
- Kd [5]: 0.2 nM
- koff [5]: 0.0005 s⁻¹
- kon [5]: 2e+06 M⁻¹ s⁻¹
- Kd (human IL-17F homodimer [6]): 0.1 nM
- koff (human IL-17F homodimer [6]): 0.0002 s⁻¹
- kon (human IL-17F homodimer [6]): 2e+06 M⁻¹ s⁻¹
- Kd [7]: 0.2 nM
- koff [7]: 0.0005 s⁻¹
- kon [7]: 2e+06 M⁻¹ s⁻¹
- IC50, IL-6 induction in primary human fibroblasts (HFFF) [8]: 22 nM
- IC50, IL-6 induction in primary human fibroblasts (HFFF) (human IL-17A homodimer [9]): 2 nM
- IC50, IL-6 induction in primary human fibroblasts (HFFF) (human IL-17F homodimer [10]): 23 nM
- IC50, NIH/3T3/KZ170 NF-kB luciferase reporter [11]: 0.23 nM
- IC50, NIH/3T3/KZ170 NF-kB luciferase reporter (human IL-17A homodimer [12]): 1.2 nM
- IC50, NIH/3T3/KZ170 NF-kB luciferase reporter (human IL-17F homodimer [13]): 0.28 nM
- Kd (human IL-17A homodimer [14]): 1 nM
- koff (human IL-17A homodimer [14]): 0.003 s⁻¹
- kon (human IL-17A homodimer [14]): 2e+06 M⁻¹ s⁻¹
- Kd (human IL-17A homodimer [15]): 1 nM
- koff (human IL-17A homodimer [15]): 0.003 s⁻¹
- kon (human IL-17A homodimer [15]): 2e+06 M⁻¹ s⁻¹
- IC50, G-CSF induction in primary human SAEC [16]: 1.3 nM
- IC50, IL-6 induction in primary human fibroblasts (HFFF) [16]: 13 nM
- IC50, G-CSF induction in primary human SAEC (human IL-17A homodimer [17]): 0.5 nM
- IC50, IL-6 induction in primary human fibroblasts (HFFF) (human IL-17A homodimer [17]): 0.9 nM
- IC50, G-CSF induction in primary human SAEC (human IL-17F homodimer [18]): 1.1 nM
- IC50, IL-6 induction in primary human fibroblasts (HFFF) (human IL-17F homodimer [18]): 15 nM
- IC50, NIH/3T3/KZ170 NF-kB luciferase reporter [19]: 0.27 nM
- IC50, NIH/3T3/KZ170 NF-kB luciferase reporter (human IL-17A homodimer [20]): 1.3 nM
- IC50, NIH/3T3/KZ170 NF-kB luciferase reporter (human IL-17F homodimer [21]): 0.24 nM
- Kd (human IL-17F homodimer [22]): 0.1 nM
- koff (human IL-17F homodimer [22]): 0.0002 s⁻¹
- kon (human IL-17F homodimer [22]): 2e+06 M⁻¹ s⁻¹
- IC50, NIH/3T3/KZ170 NF-kB luciferase reporter [23]: 0.26 nM
- IC50, NIH/3T3/KZ170 NF-kB luciferase reporter (human IL-17A homodimer [24]): 1.4 nM
- IC50, NIH/3T3/KZ170 NF-kB luciferase reporter (human IL-17F homodimer [25]): 0.24 nM
B2: humanized anti-human IL-17A/F antibody 339-134 mAb IgG1.1 (antibody, V domains shown)
VH: QVQLVQSGAEVKKPGASVKVSCKASGYTFNEYTMHWVKQAPGQRLEWMGGINPNSGGVSYNQNFKGKATLTVDTSASTAYMELSSLRSEDTAVYYCARGGDGYYTNYFDIDYWGQGTTVTVSS
VL: DIQMTQSPSSLSASVGDRVTITCSASSSVNYMHWYQQKPGKVPKLLIYDTSKLASGVPSRFSGSGSGTDFTLTISSLQPEDVATYYCQQWNSHPLTFGQGTKLEIKR
notes: IgG1.1/kappa; also called MVC978/MVC717; humanized parent

- binding result (human IL-17F homodimer [26]): binds
B3: Fab derived from the IL-17 arms of biAb3 (Lead Fab A3185F) (Fab, V domains shown)
VH: QVQLVQSGAEVKKPGASVKVSCKASGYTFNEYTMHWVKQAPGQRLEWMGGINPNSGGVSYNQNFKGKATLTVDTSASTAYMELSSLRSEDTAVYYCARGGDGYYTNYFDIDYWGQGTTVTVSS
VL: not shown
notes: Expressed periplasmically in E. coli, purified by IMAC (tag not described); also called humanized lead Fab; biAb Fab
